# Assay results taken from publication PMC12356973.
# B1: Cap-0 RNA (7MeGppp RNA) (ssRNA)
# RNA: AUUAAAGGUU
# modifications: 5' m7Gppp cap (Cap-0), Vaccinia capping system
# Biological target: nsp10 (two [Fe4S4]);nsp16 (SARS-CoV-2;SARS-CoV-2, UniProt P0DTD1;P0DTD1 4254-4392;6799-7096, |)
# Test: EMSA
# Conditions: protein: recombinant;recombinant; copies: 1;1; single strand
binder,measurement,value
B1,binding result,binds
